Legend:
[1] = biological target: T1, P2-3D-RBD (insect cell expression system); assay: SPR (Biacore 8K), HEV-p239 coupled to CM5 chip (Fig. 10A)
T1 construct: also called VHH-RBD

[2] = biological target: T2, P1-5B-RBD (insect cell expression system); assay: as above
T2 construct: also called VHH-RBD; P1-5B-RBD fusion protein

[3] = biological target: T3, P2-3E-RBD (insect cell expression system); assay: as above
T3 construct: also called VHH-RBD

[4] = biological target: T4, P2-3A-RBD (insect cell expression system); assay: as above
T4 construct: also called VHH-RBD

[5] = biological target: T5, P2-2C-RBD (mammalian cell expression system); assay: SPR (Biacore 8K), HEV-p239 coupled to CM5 chip (Fig. 10B)
T5 construct: also called VHH-RBD

[6] = biological target: T6, P2-3E-RBD (mammalian cell expression system); assay: as above
T6 construct: also called VHH-RBD

[7] = biological target: T7, P1-5B-RBD (mammalian cell expression system); assay: as above
T7 construct: also called VHH-RBD

[8] = biological target: T8, P2-5C-RBD (mammalian cell expression system); assay: as above
T8 construct: also called VHH-RBD

[9] = biological target: T9, P2-3A-RBD (mammalian cell expression system); assay: as above
T9 construct: also called VHH-RBD

Measured: binding result

B1: HEV-p239 protein (other)
chain: IALTLFNLADTLLGGLPTELISSAGGQLFYSRPVVSANGEPTVKLYTSVENAQQDKGIAIPHDIDLGESRVVIQDYDNQHEQDRPTPSPAPSRPFSVLRANDVLWLSLTAAEYDQSTYGSSTGPVYVSDSVTLVNVATGAQAVARSLDWTKVTLDGRPLSTIQQYSKTFFVLPLRGKLSFWEAGTTKAGYPYNYNTTASDQLLVENAAGHRVAISTYTTSLGAGPVSISAVAVLAPHSV
notes: also called HEV-p239 particles; HEV particles
binds: all assays above

Reference: patent EP4628095A1 (Xiamen University, dated 2025)
